Data set [1] concerns the target T1, ProXp-ala WT (Caulobacter crescentus, UniProt Q9ABV9 1-168).
T1 sequence: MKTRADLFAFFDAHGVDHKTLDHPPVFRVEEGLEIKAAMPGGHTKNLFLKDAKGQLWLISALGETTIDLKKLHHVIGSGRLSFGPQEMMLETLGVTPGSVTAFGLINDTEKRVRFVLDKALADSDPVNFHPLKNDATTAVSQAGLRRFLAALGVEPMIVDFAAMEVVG
Kind of data set: EMSA; apparent, Hill fit; EMSA: 81 nM duplex annealed in 50 mM sodium phosphate pH 7.5, 150 mM NaCl, 0-114 μM protein, 1 h room temp, 16% native gel in TBE; NMR: same phosphate buffer, 1. Particulars: protein: recombinant, tags: N-terminal His6 removed by thrombin, leaves Gly-Ser-His, label: 3' 6FAM on strand 1. For orientation: A gel shift assay detects complexes by their altered migration in electrophoresis.

For data set [2], the target named is T1, ProXp-ala WT. Description: NMR; 100 μM each; EMSA: 81 nM duplex annealed in 50 mM sodium phosphate pH 7.5, 150 mM NaCl, 0-114 μM protein, 1 h room temp, 16% native gel in TBE; NMR: same phosphate buffer, 1. The settings on record: protein: recombinant; tags: N-terminal His6 removed by thrombin; leaves Gly-Ser-His; hairpin; 7 bp stem, 3' ACCA single-stranded.

In data set [3] the target is T1, ProXp-ala WT. Kind of data set: NMR; 100 μM each; indistinguishable from microhelixPro; EMSA: 81 nM duplex annealed in 50 mM sodium phosphate pH 7.5, 150 mM NaCl, 0-114 μM protein, 1 h room temp, 16% native gel in TBE; NMR: same phosphate buffer, 1. The settings on record: protein: recombinant; tags: N-terminal His6 removed by thrombin; leaves Gly-Ser-His; hairpin; 12 bp stem, 3' ACCA single-stranded.

B1: duplexPro A76U (dsRNA)
RNA 1: CGGCGAGGGAGGUU
RNA 2: AUCCUCUCUCGCCGACCU
Consider B1, for which the Kd with ProXp-ala WT [1] (3' overhang 4 nt on strand 2) was 106 ± 16 µM.

B2: duplexPro A76G (dsRNA)
RNA 1: CGGCGAGGGAGGUU
RNA 2: AUCCUCUCUCGCCGACCG
As for B2, in the data set with ProXp-ala WT [1] (3' overhang 4 nt on strand 2), the Kd was 66 ± 11 µM.

B3: duplexPro A76 (WT) (dsRNA)
RNA 1: CGGCGAGGGAGGUU
RNA 2: AUCCUCUCUCGCCGACCA
For the molecule B3, in the data set with ProXp-ala WT [1] (3' overhang 4 nt (ACCA) on strand 2), the Kd amounted to 33 ± 11 µM.

B4: duplexPro 3'pΔA76 (dsRNA)
RNA 1: CGGCGAGGGAGGUU
RNA 2: AUCCUCUCUCGCCGACC
modifications: 3' phosphate on terminal C of strand 2
With B4, the Kd with ProXp-ala WT [1] (3' overhang 3 nt on strand 2) amounted to 63 ± 11 µM. On to CGGCGAGUUCGCUCGCCGACCA (structured_RNA) [microhelixPro], for which, in the data set with ProXp-ala WT [2], the binding result was “binds”.

B5: duplexPro dA76 (dsRNA)
RNA 1: CGGCGAGGGAGGUU
RNA 2: AUCCUCUCUCGCCGACCA
modifications: 2'-deoxy-A at 3' terminus of strand 2
For B5, the Kd with ProXp-ala WT [1] (3' overhang 4 nt on strand 2) is 34 ± 5 µM. CGGCGAGGGAGGUUCGAAUCCUCUCUCGCCGACCA (structured_RNA) [minihelixPro]: the binding result with ProXp-ala WT [3] is reported as “binds”.

B6: duplexPro A76C (dsRNA)
RNA 1: CGGCGAGGGAGGUU
RNA 2: AUCCUCUCUCGCCGACCC
In the case of B6, the Kd with ProXp-ala WT [1] (3' overhang 4 nt on strand 2) amounted to 87 ± 4 µM.

B7: duplexPro ΔA76 (dsRNA)
RNA 1: CGGCGAGGGAGGUU
RNA 2: AUCCUCUCUCGCCGACC
For the molecule B7, the Kd with ProXp-ala WT [1] (3' overhang 3 nt on strand 2) amounted to 75 ± 12 µM.

These data come from paper PMC10164551, “Structural basis of tRNAPro acceptor stem recognition by a bacterial trans-editing domain”.
